Data from patent US20240150440A1 (LUMEN BIOSCIENCE, published 2024).

B1: PP909 MBP-5HVZ-S2b-A7-H6 (VHH)
VHH: QVQLVESGGGLVQPGGSLRLSCAASGSSDSWNALHWFRQAPGKEREFVAGISSAGSGYYADSVKGRFTISRDNAKNTVYLQMNSLKPEDTAVYYCNGYEHTTGYDYWGQGTQVTVSS
notes: Form: Dimer
B2: PP914 MBP-5HVZ-S3a-H1-H6 (VHH)
VHH: QVQLVESGGGLVQPGGSLRLSCAASGGIYSPYSMHWFRQAPGKAREWVAGIVGGGGTTYSDSVKGRFTISRDNAKNTVYLQMNSLKPEDTAVYYCNANYQEYDEYDYWGQGTQVTVSS
notes: Form: Dimer
B3: PP1143 MBP-5HVZ-PAPA-R2b-D5-H6 (VHH)
VHH: QVQLVESGGGLVQPGGSLRLSCAASGYADEINMVHWYRQAPGKGREFVAAIASGGSTFYADSVKGRFTISRDNAKNTVYLQMNSLKPEDTAVYYCAAIPRPSLSYAHDYAYWGQGTQVTVSS
notes: Form: Dimer
B4: PP1155 MPB-scTRP-PAPA-R2b-D5-H6 (VHH)
VHH: B3 VHH
notes: Form: Trimer
B5: PP1131 MBP-4B0F-PAPA-R2b-D5-H6 (VHH)
VHH: B3 VHH
notes: Form: Heptamer
B6: PP916 MBP-5HVZ-S3b-A8-H6 (VHH)
VHH: QVQLVESGGGLVQPGGSLRLSCAASGSIISRVKVHWFRQAPGKSREWVAGIDSGTASYYSDSVKGRFTISRDNAKNTVYLQMNSLKPEDTAVYYCAAENRGYGVDWGQGTQVTVSS
notes: Form: Dimer
B7: PP913 MBP-5HVZ-S3a-C5-H6 (VHH)
VHH: QVQLVESGGGLVQPGGSLRLSCAASGSIKNTNAMHWFRQAPGKDREWVAGITSGGNSNYGDSVKGRFTISRDNAKNTVYLQMNSLKPEDTAVYYCAAFGYRYDQDYTYDYWGQGTQVTVSS
notes: Form: Dimer
B8: PP907 MBP-5HVZ-S1b-E11-H6 (VHH)
VHH: QVQLVESGGGLVQPGGSLRLSCAASGSYASIASMHWFRQAPGKEREFVAGVTSGGSTNYGDSVKGRFTISRDNAKNTVYLQMNSLKPEDTAVYYCNALAGANYESQWEEYNYWGQGTQVTVSS
notes: Form: Dimer
B9: PP911 MBP-5HVZ-S2b-F7-H6 (VHH)
VHH: QVQLVESGGGLVQPGGSLRLSCAASGSTLSNNAMHWFRQAPGKAREFVAAIGSSDSTDYKDSVKGRFTISRDNAKNTVYLQMNSLKPEDTAVYYCTALLDSGPGEYNYWGQGTQVTVSS
notes: Form: Dimer
B10: PP908 MBP-5HVZ-S2a-C4-H6 (VHH)
VHH: QVQLVESGGGLVQPGGSLRLSCAASGFSESINATAWFRQAPGKQREGVAGLDGGGSDYYSDSVKGRFTISRDNAKNTVYLQMNSLKPEDTAVYYCAAQLTSSFRGYDFTPSNYDYWGQGTQVTVSS
notes: Form: Dimer
B11: PP915 MBP-5HVZ-S3b-A7-H6 (VHH)
VHH: QVQLVESGGGLVQPGGSLRLSCAASGSIASINAIHWVRQAPGKQREEVAAITSGGSTGYADSVKGRFTISRDNAKNTVYLQMNSLKPEDTAVYYCAAQPGQSYAVWGQGTQVTVSS
notes: Form: Dimer
B12: PP1177 MPB-scTRP-PAPA-R2a-F3-H6 (VHH)
VHH: QVQLVESGGGLVQPGGSLRLSCAASGSITSINWMHWFRQAPGKDREGVASISQTGRGSYADSVKGRFTISRDNAKNTVYLQMNSLKPEDTAVYYCAAASRTGTPYNYWGQGTQVTVSS
notes: Form: Trimer
B13: PP910 MBP-5HVZ-S2b-C10-H6 (VHH)
VHH: QVQLVESGGGLVQPGGSLRLSCAASGSAFSLNYMAWFRQAPGKQREGVAIIGSGGSSDYADSVKGRFTISRDNAKNTVYLQMNSLKPEDTAVYYCAAQPNGSPDDFDYWGQGTQVTVSS
notes: Form: Dimer

Assays:
[1] = target: SARS-COV-2 Wuhan Reference RBD (SARS-CoV-2, UniProt P0DTC2 319-541); experiment: ELISA, RBD coated
[2] = target: T1, recombinant SARS-CoV-2 RBD with C-terminal AviTag (SARS-CoV-2, UniProt P0DTC2 319-541); experiment: ELISA, competition with coated ACE2-Fc for RBD [Cont. 7]
[3] = target: T1, recombinant SARS-CoV-2 RBD with …; experiment: BLI, biotinylated RBD on streptavidin biosensors
[4] = target: T1, recombinant SARS-CoV-2 RBD with …; experiment: ELISA, competition with coated ACE2-Fc for RBD

Binder	EC50 [1] [nM]	IC50 [2] [nM]	Kd [3] [nM]	IC50 [4] [nM]
B1	0.62	5.9	22.5	
B2	3.24	4.3		
B3				8.4
B4				46.5
B5				14.5
B6	1.19	2	12.1	
B7	1.53	2.8	1.42	
B8	3	15.9		
B9	2.36	43.6	44.3	
B10	1.59	13.1	219	
B11	1.05		2.63	
B12				83.6
B13		405	54	
